Source: article PMC10786891, “Massively parallel profiling of RNA-targeting CRISPR-Cas13d”
Residue numbers refer to the chain shown, from its start. Numbers in names are those of the source.

T1: EsCas13d, nuclease-dead (Eubacterium siraeum, UniProt B0MS50, R295A;H300A;R849A;H854A)
T1 sequence: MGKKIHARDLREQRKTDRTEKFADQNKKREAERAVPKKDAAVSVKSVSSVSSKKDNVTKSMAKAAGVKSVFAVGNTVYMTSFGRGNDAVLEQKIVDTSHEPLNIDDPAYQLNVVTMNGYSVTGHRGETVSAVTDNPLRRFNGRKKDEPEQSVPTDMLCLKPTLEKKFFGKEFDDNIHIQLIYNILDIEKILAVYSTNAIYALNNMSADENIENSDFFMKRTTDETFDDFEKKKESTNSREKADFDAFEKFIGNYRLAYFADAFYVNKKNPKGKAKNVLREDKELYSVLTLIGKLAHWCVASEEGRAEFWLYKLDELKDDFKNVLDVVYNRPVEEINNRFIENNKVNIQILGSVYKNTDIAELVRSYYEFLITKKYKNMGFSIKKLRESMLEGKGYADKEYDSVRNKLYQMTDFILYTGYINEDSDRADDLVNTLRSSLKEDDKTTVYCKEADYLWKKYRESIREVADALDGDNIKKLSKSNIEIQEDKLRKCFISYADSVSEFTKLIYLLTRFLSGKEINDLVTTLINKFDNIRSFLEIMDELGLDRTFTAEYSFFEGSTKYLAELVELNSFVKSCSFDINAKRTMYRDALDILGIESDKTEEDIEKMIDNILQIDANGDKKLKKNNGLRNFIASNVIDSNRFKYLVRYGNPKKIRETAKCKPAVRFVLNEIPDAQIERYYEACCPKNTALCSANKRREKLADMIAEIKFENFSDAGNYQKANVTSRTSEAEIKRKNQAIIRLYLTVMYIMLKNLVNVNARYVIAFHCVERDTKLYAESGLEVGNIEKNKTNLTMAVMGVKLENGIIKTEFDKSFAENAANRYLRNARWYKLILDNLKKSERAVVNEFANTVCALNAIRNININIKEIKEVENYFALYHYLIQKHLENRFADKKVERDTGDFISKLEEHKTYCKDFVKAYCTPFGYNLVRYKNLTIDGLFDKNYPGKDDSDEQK

B1: target 1 C2U,C4U (mixed)
RNA 1: CACCCGUGCAAAAAUGCAGGGGUCUAAAACUGAGCGGAUAACCUCUCUAUGG
RNA 2: GGGAAUGGAUCCACAUCUACGAAUUCGUACCAUAGAGAGGUUAUCCGUUUACCGAGAUCGGAAGAGCACACGU
B2: target 1 A1G,U3A (mixed)
RNA 1: B1 RNA 1
RNA 2: B1 RNA 2 with U48C, U49A, U50C, A51G
B3: target 1 insC 3' of 9,insU 3' of 6 (mixed)
RNA 1: B1 RNA 1
RNA 2: GGGAAUGGAUCCACAUCUACGAAUUCGUACCAUAGAGAGGUUACUCCUGCUCACCGAGAUCGGAAGAGCACACGU
B4: target 1 insA 3' of 5,insU 3' of 1 (mixed)
RNA 1: B1 RNA 1
RNA 2: B3 RNA 2 with C44U, U45C, C47G, U48A, G49C, C50U, U51C, C52A, A53U
B5: target 3 insC 3' of 11,insU 3' of 3 (mixed)
RNA 1: CACCCGUGCAAAAUUGCAGGGGUCUAAAACGACCUGAAUAUUUCAGAUCAAA
RNA 2: GGGAAUGGAUCCACAUCUACGAAUUCGUUUUUGAUCUGAAACUAUUCAGGUUCUGCAGAUCGGAAGAGCACACGU
B6: target 3 U22G (mixed)
RNA 1: B5 RNA 1
RNA 2: GGGAAUGGAUCCACAUCUACGAAUUCGUUGUUGAUCUGAAAUAUUCAGGUCUGCAGAUCGGAAGAGCACACGU
B7: target 3 G4A,A13G (mixed)
RNA 1: B5 RNA 1
RNA 2: B6 RNA 2 with G30U, A39G, G48A
B8: target 3 insG 3' of 5,insU 3' of 3 (mixed)
RNA 1: B5 RNA 1
RNA 2: B5 RNA 2 with C42U, U43A, A44U, U46C, C47A, A48G
B9: target 3 U2G,A9U (mixed)
RNA 1: B5 RNA 1
RNA 2: B6 RNA 2 with G30U, A43U, U50G
B10: target 3 insG 3' of 7,insU 3' of 5 (mixed)
RNA 1: B5 RNA 1
RNA 2: B5 RNA 2 with C42U, U43A, A44U, U46G, G49U, U51G
B11: target 3 U2C,G4U (mixed)
RNA 1: B5 RNA 1
RNA 2: B6 RNA 2 with G30U, G48U, U50C
B12: target 3 U2G (mixed)
RNA 1: B5 RNA 1
RNA 2: B6 RNA 2 with G30U, U50G
B13: target 3 insU 3' of 11,insG 3' of 2 (mixed)
RNA 1: B5 RNA 1
RNA 2: B5 RNA 2 with C42U, U52G
B14: target 3 A13G (mixed)
RNA 1: B5 RNA 1
RNA 2: B6 RNA 2 with G30U, A39G
B15: target 3 insC 3' of 21,insU 3' of 4 (mixed)
RNA 1: B5 RNA 1
RNA 2: GGGAAUGGAUCCACAUCUACGAAUUCGUUUUCUGAUCUGAAAUAUUCAGUGUCUGCAGAUCGGAAGAGCACACGU
B16: target 3 insC 3' of 22,insC 3' of 5 (mixed)
RNA 1: B5 RNA 1
RNA 2: B15 RNA 2 with U31C, C32U, G49C, U50G
B17: target 3 insG 3' of 8,insU 3' of 3 (mixed)
RNA 1: B5 RNA 1
RNA 2: B5 RNA 2 with C42U, U43A, A44U, U45G
B18: target 3 insU 3' of 3 (mixed)
RNA 1: B5 RNA 1
RNA 2: GGGAAUGGAUCCACAUCUACGAAUUCGUUUUUGAUCUGAAAUAUUCAGGUUCUGCAGAUCGGAAGAGCACACGU
B19: target 3 insG 3' of 7,insA 3' of 6 (mixed)
RNA 1: B5 RNA 1
RNA 2: B5 RNA 2 with C42U, U43A, A44U, U46G, G49A, U51G
B20: target 3 C6U,U7G (mixed)
RNA 1: B5 RNA 1
RNA 2: B6 RNA 2 with G30U, U45G, C46U
B21: target 3 insA 3' of 3,insA 3' of 2 (mixed)
RNA 1: B5 RNA 1
RNA 2: B5 RNA 2 with C42U, U43A, A44U, U46C, C47A, A48G, G50A, U52A
B22: target 3 insA 3' of 7,insG 3' of 6 (mixed)
RNA 1: B5 RNA 1
RNA 2: B5 RNA 2 with C42U, U43A, A44U, U46A, A48G, G49A, U51G
B23: target 3 U2A,A9G (mixed)
RNA 1: B5 RNA 1
RNA 2: B6 RNA 2 with G30U, A43G, U50A
B24: target 3 insG 3' of 9,insA 3' of 6 (mixed)
RNA 1: B5 RNA 1
RNA 2: B5 RNA 2 with C42U, U43A, A44G, G49A, U51G
B25: target 3 A5G,C6A (mixed)
RNA 1: B5 RNA 1
RNA 2: B6 RNA 2 with G30U, C46A, A47G
B26: target 3 G4A,A5U (mixed)
RNA 1: B5 RNA 1
RNA 2: B6 RNA 2 with G30U, A47U, G48A
B27: target 3 insC 3' of 3,insU 3' of 3 (mixed)
RNA 1: B5 RNA 1
RNA 2: B5 RNA 2 with C42U, U43A, A44U, U46C, C47A, A48G, G50C
B28: target 3 A5G,U22C (mixed)
RNA 1: B5 RNA 1
RNA 2: B6 RNA 2 with G30C, A47G
B29: target 3 C1A,U22G (mixed)
RNA 1: B5 RNA 1
RNA 2: B6 RNA 2 with C51A
B30: target 3 insG 3' of 9,insG 3' of 7 (mixed)
RNA 1: B5 RNA 1
RNA 2: B5 RNA 2 with C42U, U43A, A44G, C47G, A48C, G49A, U51G
B31: target 3 G3C,A5C (mixed)
RNA 1: B5 RNA 1
RNA 2: B6 RNA 2 with G30U, A47C, G49C
B32: target 3 insU 3' of 3,insU 3' of 3 (mixed)
RNA 1: B5 RNA 1
RNA 2: B5 RNA 2 with C42U, U43A, A44U, U46C, C47A, A48G, G50U
B33: target 3 insA 3' of 10,insA 3' of 6 (mixed)
RNA 1: B5 RNA 1
RNA 2: B5 RNA 2 with C42U, U43A, G49A, U51G

Molecular target: T1, EsCas13d, nuclease-dead
Experiment: crRNA (strand 1, pre-loaded); Mg2+; 40 mM Tris-HCl pH 7.5, 150 mM NaCl, 6 mM MgCl2, 1 mM DTT, 0.1% Tween-20, 0.2 mg/ml BSA; 25 C; 10 min per concentration, then washed
Conditions: tags: His6-TwinStrep-SUMO cleaved; N-terminal SNAP kept (SNAP-Surface 488); label: 3' end held by stalled T7 RNA polymerase

Row | Binder | Kd [nM]
1 | B1 | 58 ± 17
2 | B2 | 6.8 ± 0.6
3 | B3 | 16.6 ± 0.9
4 | B4 | 9.5 ± 1
5 | B5 | 74.5 ± 33.5
6 | B6 | 61 ± 13
7 | B7 | 112 ± 35
8 | B8 | 30 ± 4.5
9 | B9 | 123 ± 29
10 | B10 | 19.9 ± 2.2
11 | B11 | 23 ± 5
12 | B12 | 26.5 ± 2.7
13 | B13 | 42.5 ± 6
14 | B14 | 69 ± 20
15 | B15 | ~68.5
16 | B16 | 32 ± 4.5
17 | B17 | 85.5 ± 29.5

Row | Binder | Kd [nM]
18 | B18 | 29.2 ± 3.4
19 | B19 | 29.3 ± 3.75
20 | B20 | 39 ± 6
21 | B21 | 26.5 ± 6
22 | B22 | 21.1 ± 1.4
23 | B23 | 47 ± 6
24 | B24 | 90.5 ± 16
25 | B25 | 34.1 ± 3.35
26 | B26 | 19.3 ± 2.25
27 | B27 | 17.9 ± 2.1
28 | B28 | 23.4 ± 3.5
29 | B29 | ~87
30 | B30 | 63 ± 7
31 | B31 | 96.5 ± 15.5
32 | B32 | 81 ± 20
33 | B33 | 71 ± 8.5
